{"source": "patent US20200071671A1", "molecular_target": "hCCNT1-C261Y (human) (UniProt O60563)", "sequence (O60563 whole entry C261Y)": "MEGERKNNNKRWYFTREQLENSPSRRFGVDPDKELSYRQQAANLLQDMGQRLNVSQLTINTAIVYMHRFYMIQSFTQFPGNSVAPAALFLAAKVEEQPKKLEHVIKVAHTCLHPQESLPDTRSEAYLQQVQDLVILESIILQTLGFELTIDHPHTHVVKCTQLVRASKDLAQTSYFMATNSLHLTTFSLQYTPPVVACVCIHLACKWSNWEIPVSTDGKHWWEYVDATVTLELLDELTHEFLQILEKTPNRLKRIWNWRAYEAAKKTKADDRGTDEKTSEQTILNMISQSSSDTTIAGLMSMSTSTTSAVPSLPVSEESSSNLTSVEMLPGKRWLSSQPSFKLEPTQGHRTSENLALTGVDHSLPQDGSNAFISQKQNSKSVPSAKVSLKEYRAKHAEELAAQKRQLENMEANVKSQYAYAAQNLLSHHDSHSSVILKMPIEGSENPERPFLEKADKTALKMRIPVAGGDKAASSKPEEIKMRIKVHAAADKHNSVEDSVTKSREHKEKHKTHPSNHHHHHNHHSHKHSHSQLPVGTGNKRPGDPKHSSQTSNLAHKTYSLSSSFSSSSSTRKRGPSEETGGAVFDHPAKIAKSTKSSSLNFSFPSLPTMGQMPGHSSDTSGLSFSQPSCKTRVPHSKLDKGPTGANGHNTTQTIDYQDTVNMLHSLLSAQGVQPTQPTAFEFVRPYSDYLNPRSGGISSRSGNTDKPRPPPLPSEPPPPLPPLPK", "test": "cell-based or functional assay", "data": [{"substance": "HIV-1 Tat protein", "values": [{"measurement": "fold decrease in Tat-dependent GFP expression, dual-colour single-round HIV-1 reporter virus, hCCNT1-C261Y Jurkat cells against wild-type parental cells", "value": "> 16", "unit": "fold"}]}]}
